Here are results for six molecules from patent US20110301079A1 (INSTITUTO DI RICERCHE DI BIOLOGIA MOLECOLARE P ANGELETTI S …, published 2011).

Groups on a side chain read outwards from the residue. *: point of attachment. cholesteroyl = cholesterol group linked to a cysteine residue via the side-chain thiol; Succinimide(1-Et,3-yl) = CCN1C(=O)CC(*)C1=O

Among the targets are human NMUR2 (human, UniProt Q9GZQ4 1-415); mouse NMUR2 (mouse, UniProt Q8BZ39 1-395); dog NMUR2 (dog).
What all share (assay): cell-based or functional assay
A further assay has as its target T1, mouse NMUR1-ATG (mouse, UniProt O55040 1-428).
T1 sequence (looked up): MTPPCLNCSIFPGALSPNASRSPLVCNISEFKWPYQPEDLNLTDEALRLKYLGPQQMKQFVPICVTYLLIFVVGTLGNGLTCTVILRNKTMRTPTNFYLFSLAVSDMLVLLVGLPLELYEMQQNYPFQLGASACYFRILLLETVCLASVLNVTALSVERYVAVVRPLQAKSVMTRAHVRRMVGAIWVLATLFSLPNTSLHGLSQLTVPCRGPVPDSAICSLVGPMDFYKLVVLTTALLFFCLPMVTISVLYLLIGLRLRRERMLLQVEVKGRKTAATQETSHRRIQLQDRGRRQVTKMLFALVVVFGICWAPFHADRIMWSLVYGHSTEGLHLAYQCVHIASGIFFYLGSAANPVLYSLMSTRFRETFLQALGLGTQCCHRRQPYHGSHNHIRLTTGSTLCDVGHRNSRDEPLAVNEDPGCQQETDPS

The target in a further assay is T2, human NMUR1 (human, UniProt Q9HB89 1-426).
T2 sequence (looked up): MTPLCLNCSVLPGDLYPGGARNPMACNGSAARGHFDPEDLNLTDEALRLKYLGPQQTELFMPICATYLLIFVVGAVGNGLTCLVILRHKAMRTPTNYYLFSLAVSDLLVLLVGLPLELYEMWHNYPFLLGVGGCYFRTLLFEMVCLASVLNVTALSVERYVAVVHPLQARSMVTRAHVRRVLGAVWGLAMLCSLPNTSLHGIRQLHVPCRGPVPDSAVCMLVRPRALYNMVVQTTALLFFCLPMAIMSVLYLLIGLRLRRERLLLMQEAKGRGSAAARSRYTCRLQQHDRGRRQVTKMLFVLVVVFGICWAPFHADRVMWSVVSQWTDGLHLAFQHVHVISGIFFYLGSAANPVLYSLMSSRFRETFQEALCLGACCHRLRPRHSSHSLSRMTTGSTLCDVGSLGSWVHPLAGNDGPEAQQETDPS

Another assay concerns the target T3, dog NMUR1-ATG (dog, UniProt A0A8I3S7S8 1-422).
T3 sequence: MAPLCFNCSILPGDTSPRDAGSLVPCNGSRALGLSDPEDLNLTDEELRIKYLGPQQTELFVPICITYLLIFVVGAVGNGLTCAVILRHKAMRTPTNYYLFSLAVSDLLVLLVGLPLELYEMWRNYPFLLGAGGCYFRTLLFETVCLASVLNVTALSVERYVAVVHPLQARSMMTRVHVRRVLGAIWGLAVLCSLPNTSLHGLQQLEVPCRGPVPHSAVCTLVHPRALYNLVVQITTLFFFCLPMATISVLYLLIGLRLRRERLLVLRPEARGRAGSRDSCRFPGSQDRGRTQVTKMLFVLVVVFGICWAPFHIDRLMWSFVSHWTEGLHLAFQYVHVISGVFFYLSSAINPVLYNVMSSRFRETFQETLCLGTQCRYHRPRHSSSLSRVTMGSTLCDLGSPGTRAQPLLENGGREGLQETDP

human NMUR2, sequence (Q9GZQ4 whole entry): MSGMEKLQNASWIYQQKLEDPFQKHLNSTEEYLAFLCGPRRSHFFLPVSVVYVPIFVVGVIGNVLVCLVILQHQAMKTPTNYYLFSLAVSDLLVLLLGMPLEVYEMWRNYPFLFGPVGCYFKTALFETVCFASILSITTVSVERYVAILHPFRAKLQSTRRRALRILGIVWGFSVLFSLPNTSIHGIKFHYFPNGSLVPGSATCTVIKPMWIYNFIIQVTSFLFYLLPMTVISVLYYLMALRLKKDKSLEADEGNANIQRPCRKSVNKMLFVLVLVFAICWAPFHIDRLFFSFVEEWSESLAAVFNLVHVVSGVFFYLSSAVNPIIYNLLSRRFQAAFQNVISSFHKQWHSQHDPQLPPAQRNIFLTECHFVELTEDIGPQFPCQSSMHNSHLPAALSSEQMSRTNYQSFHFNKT
mouse NMUR2, sequence (Q8BZ39 whole entry): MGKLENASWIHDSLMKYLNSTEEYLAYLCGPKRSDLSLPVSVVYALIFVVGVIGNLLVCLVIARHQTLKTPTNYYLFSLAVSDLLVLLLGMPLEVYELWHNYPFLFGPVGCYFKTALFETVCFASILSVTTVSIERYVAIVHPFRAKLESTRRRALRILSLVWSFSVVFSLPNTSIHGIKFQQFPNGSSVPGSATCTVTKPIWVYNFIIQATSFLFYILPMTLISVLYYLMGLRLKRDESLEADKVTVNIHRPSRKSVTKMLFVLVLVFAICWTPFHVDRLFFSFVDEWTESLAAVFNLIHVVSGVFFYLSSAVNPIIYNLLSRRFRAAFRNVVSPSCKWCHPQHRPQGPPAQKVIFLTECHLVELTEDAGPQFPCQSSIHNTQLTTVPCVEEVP

B1: NMS3 (Ac-C1ILQRGSGTAAVDFTKKDHTATWGRPFFLFRPRN-CONH2) (peptide)
peptide: Ac-C(Succinimide(1-Et,3-yl))ILQRGSGTAAVDFTKKDHTATWGRPFFLFRPRN-NH2
SMILES: CC[C@H](C)[C@H](NC(=O)[C@H](CSC1CC(=O)N(CC)C1=O)NC(C)=O)C(=O)N[C@@H](CC(C)C)C(=O)N[C@@H](CCC(N)=O)C(=O)N[C@@H](CCCNC(=N)N)C(=O)NCC(=O)N[C@@H](CO)C(=O)NCC(=O)N[C@H](C(=O)N[C@@H](C)C(=O)N[C@@H](C)C(=O)N[C@H](C(=O)N[C@@H](CC(=O)O)C(=O)N[C@@H](Cc1ccccc1)C(=O)N[C@H](C(=O)N[C@@H](CCCCN)C(=O)N[C@@H](CCCCN)C(=O)N[C@@H](CC(=O)O)C(=O)N[C@@H](Cc1c[nH]cn1)C(=O)N[C@H](C(=O)N[C@@H](C)C(=O)N[C@H](C(=O)N[C@@H](Cc1c[nH]c2ccccc12)C(=O)NCC(=O)N[C@@H](CCCNC(=N)N)C(=O)N1CCC[C@H]1C(=O)N[C@@H](Cc1ccccc1)C(=O)N[C@@H](Cc1ccccc1)C(=O)N[C@@H](CC(C)C)C(=O)N[C@@H](Cc1ccccc1)C(=O)N[C@@H](CCCNC(=N)N)C(=O)N1CCC[C@H]1C(=O)N[C@@H](CCCNC(=N)N)C(=O)N[C@@H](CC(N)=O)C(N)=O)[C@@H](C)O)[C@@H](C)O)[C@@H](C)O)C(C)C)[C@@H](C)O
Turning to B1, the “% Activity (maximum response at 1 µM compared to the human NMU-25 response)” value (from here on “% Activity”) was 105% with human NMUR2; 108% in the assay with mouse NMUR2; 98% in the assay with mouse NMUR1-ATG; 107% with dog NMUR2; 97% with human NMUR1; 101% in the assay with dog NMUR1-ATG.

For Ac-C([maleimide-(PEG)2 40 kDa])ILQRGSGTAAVDFTKKDHTATWGRPFFLFRPRN-NH2 [NMS1 (Ac-C2ILQRGSGTAAVDFTKKDHTATWGRPFFLFRPRN-CONH2)], the “% Activity” value with human NMUR2 came out at 81%; in the assay with mouse NMUR2 it was 99%; in the assay with mouse NMUR1-ATG, 82%; in the assay with dog NMUR2, 78%; with human NMUR1, 91%; with dog NMUR1-ATG, 97%.

For Ac-C([maleimide-PEG 40 kDa])ILQRGSGTAAVDFTKKDHTATWGRPFFLFRPRN-NH2 [NMS4 (Ac-C4ILQRGSGTAAVDFTKKDHTATWGRPFFLFRPRN-CONH2)], the “% Activity” value with human NMUR2 came out at 94%; with mouse NMUR2, 104%; with mouse NMUR1-ATG it was 95%; with dog NMUR2 it was 101%; in the assay with human NMUR1 it was 88%; with dog NMUR1-ATG, 81%.

Regarding Ac-C(cholesteroyl)ILQRGSGTAAVDFTKKDHTATWGRPFFLFRPRN-NH2 [NMS2 (Ac-C3ILQRGSGTAAVDFTKKDHTATWGRPFFLFRPRN-CONH2)], the “% Activity” value was determined as 16% in the assay with human NMUR2; 32% in the assay with mouse NMUR2; 39% with mouse NMUR1-ATG; 84% in the assay with dog NMUR2; 11% with human NMUR1; 46% in the assay with dog NMUR1-ATG.

B2: NMS5 (Pam-ILQRGSGTAAVDFTKKDHTATWGRPFFLFRPRN-CONH2) (peptide)
peptide: ILQRGSGTAAVDFTKKDHTATWGRPFFLFRPRN
HELM: PEPTIDE1{[CCCCCCCCCCCCCCCC(=O)[*:2]].I.L.Q.R.G.S.G.T.A.A.V.D.F.T.K.K.D.H.T.A.T.W.G.R.P.F.F.L.F.R.P.R.N.[am]}$$$$V2.0
SMILES: CCCCCCCCCCCCCCCC(=O)N[C@H](C(=O)N[C@@H](CC(C)C)C(=O)N[C@@H](CCC(N)=O)C(=O)N[C@@H](CCCNC(=N)N)C(=O)NCC(=O)N[C@@H](CO)C(=O)NCC(=O)N[C@H](C(=O)N[C@@H](C)C(=O)N[C@@H](C)C(=O)N[C@H](C(=O)N[C@@H](CC(=O)O)C(=O)N[C@@H](Cc1ccccc1)C(=O)N[C@H](C(=O)N[C@@H](CCCCN)C(=O)N[C@@H](CCCCN)C(=O)N[C@@H](CC(=O)O)C(=O)N[C@@H](Cc1c[nH]cn1)C(=O)N[C@H](C(=O)N[C@@H](C)C(=O)N[C@H](C(=O)N[C@@H](Cc1c[nH]c2ccccc12)C(=O)NCC(=O)N[C@@H](CCCNC(=N)N)C(=O)N1CCC[C@H]1C(=O)N[C@@H](Cc1ccccc1)C(=O)N[C@@H](Cc1ccccc1)C(=O)N[C@@H](CC(C)C)C(=O)N[C@@H](Cc1ccccc1)C(=O)N[C@@H](CCCNC(=N)N)C(=O)N1CCC[C@H]1C(=O)N[C@@H](CCCNC(=N)N)C(=O)N[C@@H](CC(N)=O)C(N)=O)[C@@H](C)O)[C@@H](C)O)[C@@H](C)O)C(C)C)[C@@H](C)O)[C@@H](C)CC
Consider B2, for which the “% Activity” value with human NMUR2 was 93%; in the assay with mouse NMUR2, 78%; in the assay with mouse NMUR1-ATG, 83%; with dog NMUR2, 100%; with human NMUR1, 85%; with dog NMUR1-ATG it was 82%.

Regarding H-ILQRGSGTAAVDFTKKDHTATWGRPFFLFRPRN-NH2 [native human Neuromedin S peptide (NMS)], the “% Activity” value with human NMUR2 was determined as 107%; in the assay with mouse NMUR2, 111%; with mouse NMUR1-ATG it was 102%; with dog NMUR2 it was 104%; with human NMUR1, 97%; with dog NMUR1-ATG it was 100%.
